Reference: PMC4173072, “A truncated form of the Carbon catabolite repressor 1 increases cellulase production in Trichoderma reesei”

Target: CREI-96 (truncated Carbon catabolite repressor 1, Cre1-96) (Trichoderma reesei Rut-C30, UniProt G0RB08 1-96)
Assay: competition; 2000 nM protein; 50-, 100-, 200-fold competitor against N1; bands unchanged; GST elution buffer, 10 min at 22 °C; non-denaturing PAGE; salt and pH not stated
Details: protein: recombinant; tags: GST fusion (37 kDa), thrombin-cleaved before use; label: unlabelled; blunt

Sequence of CREI-96 (truncated Carbon catabolite repressor 1, Cre1-96) (G0RB08 entry or part of it): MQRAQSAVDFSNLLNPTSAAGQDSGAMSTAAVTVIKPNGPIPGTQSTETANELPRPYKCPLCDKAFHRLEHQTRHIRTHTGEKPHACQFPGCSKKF

B1: mutated cold competitor RG221/RG222 (dsDNA)
DNA 1: CCAACGGCTTGTTGGGTTGCAGAAGCAACGGCAAAGCCCAACTTCCCAACGTTTGTTTCT
DNA 2: AGAAACAAACGTTGGGAAGTTGGGCTTTGCCGTTGCTTCTGCAACCCAACAAGCCGTTGG
binding result: no binding
